Experimental data published in the supplement of paper PMC7877785.
± gives the uncertainty stated by the source.

Test: self-splicing fitness, log relative to wild type (ln ratio); higher = more splicing; Tetrahymena group I intron in knt gene, E. coli kanamycin selection, DiMSum; sequences stand for … in CUCUCU…GGAGGGAAAAGUUAUCAGGCAUGCACCUGGUAGCUAGUCUUUAAACCAAUAGAUUGCAUCGGUUUAAAAGGCAAGACCGUCAAAUUGCGGGAAAGGGGUCAACAGCCGUUCAGUACCAAGUCUCAGGGGAAACUUUGAGAUGGCCUUGCAAAGGGUAUGGUAAUAAGCUGACGGACAUGGUCCUAACCACGCAGCCAAGUCCUAAGUCAACAGAUCUUCUGUUGAUAUGGAUGCAGUUCACAGACUAAAUGUCGGUCGGGGAAGAUGUAUUCUUCUCAUAAGAUAUAGUCGGACCUCUCCUUAAUGGGAGCUAGCGGAUGAAGUGAUGCAACACUGGAGCCGCUGGGAACUAAUUUGUAUGCGAAAGUAUAUUGAUUAGUUUUGGAGUACUCGUGGUCG
In short: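 DiMSum derived fitness as the error-weighted combination of fold changes across replicates, kanamycin versus no kanamycin, normalised to wild type. E. coli BL21(DE3) held the library, which randomised all eight P1ex-region intron nucleotides within the knt kanamycin-resistance gene on pET-22b(+). Six replicate transformations grew overnight at 37°C or 30°C on LB agar with or without 25 μg/mL kanamycin, also containing 100 μg/mL carbenicillin, 50 μM IPTG and 0.2% rhamnose, and pooled colonies were amplicon-sequenced on an Illumina HiSeq 2500.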

| Sequence | self-splicing fitness (ln) (30 °C) | self-splicing fitness (ln) (37 °C) |
| --- | --- | --- |
| AAGCAGCAAUAUUACGGGGG | -3.26 ± 0.22 | -1.92 ± 0.16 |
| AAGCAGCAAUAUUACGUAGG | -2.79 ± 0.096 | -1.96 ± 0.13 |
| AAGCAGCAAUAUUACGUAUG | -4.5 ± 0.26 | -2.63 ± 0.17 |
| AAGCAGCAAUAUUACGUGUU | -3.31 ± 0.1 | -1.65 ± 0.089 |
| AAGCAGCAAUAUUACGUUGU | -3.89 ± 0.12 | -2.31 ± 0.11 |
| AAGGAGCAAUAUUACGAACG | – | -0.373 ± 0.27 |
| AAGGAGCAAUAUUACGAUAU | -3.03 ± 0.32 | -2.37 ± 0.45 |
| AAGGAGCAAUAUUACGCAAG | -1.2 ± 0.38 | -1.45 ± 0.49 |
| AAGGAGCAAUAUUACGCAGA | – | -2.56 ± 0.45 |
| AAGGAGCAAUAUUACGCAUU | -2.8 ± 0.15 | -1.64 ± 0.16 |
| AAGGAGCAAUAUUACGCCAG | -2.29 ± 0.26 | -3.1 ± 0.35 |
| AAGGAGCAAUAUUACGGAGU | -3.24 ± 0.22 | -1.33 ± 0.17 |
| AAGGAGCAAUAUUACGGGAG | -4.8 ± 0.39 | -2.24 ± 0.3 |
| AAGGAGCAAUAUUACGGGCA | -1.9 ± 0.23 | -1.2 ± 0.28 |
| AAGGAGCAAUAUUACGGGCC | -2.98 ± 0.37 | -2.27 ± 0.45 |
| AAGGAGCAAUAUUACGGGUA | -2.64 ± 0.24 | -2.3 ± 0.46 |
| AAGGAGCAAUAUUACGGGUU | -2.46 ± 0.23 | -2.16 ± 0.28 |
| AAGGAGCAAUAUUACGGUCU | -2.3 ± 0.15 | -0.298 ± 0.12 |
| AAGGAGCAAUAUUACGGUGA | -2.44 ± 0.21 | -1.09 ± 0.2 |
| AAGGAGCAAUAUUACGGUUC | -1.51 ± 0.17 | -2.92 ± 0.35 |
| AAGGAGCAAUAUUACGUAGU | – | -2.03 ± 0.27 |

| Sequence | self-splicing fitness (ln) (30 °C) | self-splicing fitness (ln) (37 °C) |
| --- | --- | --- |
| AAGGAGCAAUAUUACGUCAG | -3.29 ± 0.41 | -2.28 ± 0.45 |
| AAGGAGCAAUAUUACGUCCU | -2.6 ± 0.25 | -2.27 ± 0.31 |
| AAGGAGCAAUAUUACGUGUC | – | -2.12 ± 0.32 |
| AAGGAGCAAUAUUACGUGUU | -3.55 ± 0.14 | -3.5 ± 0.24 |
| AAGGAGCAAUAUUACGUUGA | -3.47 ± 0.23 | -2.52 ± 0.19 |
| AAGUAGCAAUAUUACGAAAC | -3.53 ± 0.27 | -1.45 ± 0.29 |
| AAGUAGCAAUAUUACGACAC | -0.538 ± 0.19 | -0.726 ± 0.19 |
| AAGUAGCAAUAUUACGACGU | -0.114 ± 0.059 | 0.403 ± 0.078 |
| AAGUAGCAAUAUUACGAGGU | -1.94 ± 0.13 | -1.97 ± 0.17 |
| AAGUAGCAAUAUUACGAUCU | -0.032 ± 0.1 | 0.3 ± 0.13 |
| AAGUAGCAAUAUUACGCAUA | -1.31 ± 0.15 | -0.759 ± 0.15 |
| AAGUAGCAAUAUUACGCCCA | -1.95 ± 0.35 | 0.232 ± 0.38 |
| AAGUAGCAAUAUUACGCCCU | -0.145 ± 0.17 | -0.639 ± 0.19 |
| AAGUAGCAAUAUUACGCCUC | -1.63 ± 0.27 | – |
| AAGUAGCAAUAUUACGCGAC | -3.11 ± 0.31 | -1.7 ± 0.36 |
| AAGUAGCAAUAUUACGCGAU | -3.2 ± 0.16 | -2.19 ± 0.15 |
| AAGUAGCAAUAUUACGCGGC | – | 0.207 ± 0.41 |
| AAGUAGCAAUAUUACGGAGC | -3.21 ± 0.32 | -1.35 ± 0.23 |
| AAGUAGCAAUAUUACGGCGC | -0.0482 ± 0.11 | 0.221 ± 0.14 |
| AAGUAGCAAUAUUACGGGGG | -2.88 ± 0.26 | -3.2 ± 0.35 |
